Experiments:
Experiment in all cases: cell-based or functional assay
[1] = biological target: human complement component C8, alpha chain (human, UniProt P07357 31-584)
[2] = biological target: human complement component C9 (human, UniProt P02748 22-559)
[3] = biological target: human complement component C8, beta chain (human, UniProt P07358 55-591)

Measured: reduction of alternative-pathway complement-mediated lysis of rabbit erythrocytes by 6% normal guinea pig serum, 0 to 40 µg rTs-Pmy (55.7% at 10 µg)

Chain of human complement component C9 (P02748 22-559): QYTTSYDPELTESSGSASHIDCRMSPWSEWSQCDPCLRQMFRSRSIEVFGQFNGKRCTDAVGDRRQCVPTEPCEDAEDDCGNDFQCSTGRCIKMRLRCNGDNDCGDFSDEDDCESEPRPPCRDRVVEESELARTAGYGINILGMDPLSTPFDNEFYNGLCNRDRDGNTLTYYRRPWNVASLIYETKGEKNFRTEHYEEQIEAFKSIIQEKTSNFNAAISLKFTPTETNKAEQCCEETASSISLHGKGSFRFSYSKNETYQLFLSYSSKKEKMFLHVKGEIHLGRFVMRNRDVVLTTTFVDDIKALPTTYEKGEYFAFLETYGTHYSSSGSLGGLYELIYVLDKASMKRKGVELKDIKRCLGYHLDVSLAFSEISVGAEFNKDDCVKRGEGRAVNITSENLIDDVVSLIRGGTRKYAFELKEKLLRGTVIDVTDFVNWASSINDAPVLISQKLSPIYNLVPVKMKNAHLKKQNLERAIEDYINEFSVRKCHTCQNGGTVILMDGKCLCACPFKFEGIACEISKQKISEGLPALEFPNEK
Chain of human complement component C8, beta chain (P07358 55-591): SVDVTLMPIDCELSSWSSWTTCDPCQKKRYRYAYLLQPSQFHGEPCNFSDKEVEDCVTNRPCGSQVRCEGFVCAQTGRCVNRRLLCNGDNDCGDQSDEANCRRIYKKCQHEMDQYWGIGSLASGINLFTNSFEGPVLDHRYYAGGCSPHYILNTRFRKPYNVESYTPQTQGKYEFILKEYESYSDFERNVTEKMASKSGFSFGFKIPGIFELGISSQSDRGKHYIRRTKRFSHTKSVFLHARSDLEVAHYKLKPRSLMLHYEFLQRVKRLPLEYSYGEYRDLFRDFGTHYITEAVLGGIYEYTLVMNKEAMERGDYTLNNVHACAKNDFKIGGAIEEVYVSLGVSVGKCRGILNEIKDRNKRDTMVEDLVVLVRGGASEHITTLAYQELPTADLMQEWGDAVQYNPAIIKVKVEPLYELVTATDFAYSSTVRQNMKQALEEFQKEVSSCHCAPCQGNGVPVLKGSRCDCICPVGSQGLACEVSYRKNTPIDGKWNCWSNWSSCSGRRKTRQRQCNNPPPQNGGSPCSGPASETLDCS
Chain of human complement component C8, alpha chain (P07357 31-584): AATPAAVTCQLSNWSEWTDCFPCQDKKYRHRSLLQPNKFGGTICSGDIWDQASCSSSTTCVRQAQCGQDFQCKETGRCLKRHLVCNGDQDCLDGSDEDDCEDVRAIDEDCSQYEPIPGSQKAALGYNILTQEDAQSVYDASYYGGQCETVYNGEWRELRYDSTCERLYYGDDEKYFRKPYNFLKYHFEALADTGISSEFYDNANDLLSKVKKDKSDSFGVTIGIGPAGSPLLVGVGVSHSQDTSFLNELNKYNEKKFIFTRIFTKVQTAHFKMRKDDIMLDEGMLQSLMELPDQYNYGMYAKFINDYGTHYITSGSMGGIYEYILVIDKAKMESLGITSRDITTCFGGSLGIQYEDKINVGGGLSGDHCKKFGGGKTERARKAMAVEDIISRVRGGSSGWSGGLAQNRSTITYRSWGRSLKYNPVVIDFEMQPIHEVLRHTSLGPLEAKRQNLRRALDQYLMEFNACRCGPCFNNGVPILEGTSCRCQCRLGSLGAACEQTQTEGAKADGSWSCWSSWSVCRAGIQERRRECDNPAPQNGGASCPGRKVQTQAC

B1: recombinant Trichinella spiralis paramyosin (natural protein)
chain: MSLYRSPSASVMRSASMLSRSGGFDAYGFGGYGAPSLNVADLGSLTRLEDKIRLLQDDLETERELRNRIERERADLSCQLISLTDRLEEAEGTTDAQIDANRKRESELQKLRKILEDSQLESEDSLNQLRKKHQESLLDYQQQIEQLQKKNSKIDRERQRLQHEVIELTAGIDQMQKDKHAAEKAAEKHEAHARELQNRVDDLAKNLNDLASQRQRLQQENNDLMKELHDVKVQMENIQHVKTQLAQQLEEARRRLEDAERERSQMQTQLHQMQLELDSIQGALEEESSARAEAEHKLSLANTEISQWKSKFDAEVSLHQEEVDDLRKKMIQKQAEYEEQIEIMLQKISQLEKAKSRLQSEVEVLIVDLEKAQSTIAILERQKEQLERMVAEMKTRLDEVTQELEATQRELRATQAELQKMKHLYEKAVEQKEALARENKKLQDDLHEAKEALADANRKLHELDLENARLAGEIRELQIALKEAEAARRDAESRAQRAVAELQALRVEMERRLQEKEEEMEALRKNMQFEIDRLAAALADAEARMKAEISRLKKKYQAEIAELEMTIDNLNRANLEAQKTIKKQADQLRALQSSFEDCQRQLQQTLDQYAIAQRKLSALSAELEDCKSALDTAIRVRKQAEADLEEAQGKIADLVSLNNNLTAIKGKLETDLSTCQADLDETTKELRAADDRANRAQQDAVRAMEQLHEEQEHSMKIDAMRKALEEHVKQLQVQIQEAEAAALLGGKRVIAKLETRIRDLEMALDEESRRHKETQACLRKKDRRVKEMQMQVDEEHKNFVMAQDTAERLAEKLNIYKRQLTEAESLTMQNLQRVRRYQHELEDAEGRAEQAESSLHLIRAKHRSSVSMGKSLSSKVYVMEEGHEY
91.9 % reduction of lysis: [1] | [2] | [3]
